Data as given in US20080305504.

Experiments:
[1] = system: T1, fluorogenic composition Cy5-SEQ. ID. NO.: 1-Cy7Q
T1 sequence: KIIDEDLNSRALG

[2] = system: T2, hC3 peptide modified with Gly attached to a Cy5 dye at the N terminus
T2 sequence: KIIDEDLNSRALG

C3 convertase (in human plasma)
fluorescence intensity (excitation 623 nm, emission 676 nm), latex-activated plasma against plasma alone after subtracting the PBS control [1]: the signal enhancement due to Latex activation of complement was >100% | fluorescence intensity (excitation 623 nm, emission 676 nm), plasma incubated on latex coated polystyrene against plasma alone [1]: showed >50% enhancement in signal over the plasma alone sample | cleavage of the Cy5-labelled peptide in human plasma in a Latex plate, by reverse phase HPLC at 670 nm [2]: A new peak was observed in addition to the original peak. The new peak represents the cleavage product.
